B1: Fab-TC2: Fab-phage clone from thalidomide-cereblon IMiD-binding domain selection; CDRs SEQ ID NO: 2, 7, 12, 21, 22, 17 (antibody)
heavy: EISEVQLVESGGGLVQPGGSLRLSCAASGFNVSSSSIHWVRQAPGKGLEWVASIYSYYGSTYYADSVKGRFTISADTSKNTAYLQMNSLRAEDTAVYYCARTDSWYYYRYGGMDYWGQGTLVTVSSASTKGPSVFPLAPSSKSTSGGTAALGCLVKDYFPEPVTVSWNSGALTSGVHTFPAVLQSSGLYSLSSVVTVPSSSLGTQTYICNVNHKPSNTKVDKKVEPKSCDKTHTGGSHHHHHH
light: SDIQMTQSPSSLSASVGDRVTITCRASQSVSSAVAWYQQKPGKAPKLLIYSASSLYSGVPSRFSGSRSGTDFTLTISSLQPEDFATYYCQQYSWWWMPITFGQGTKVEIKRTVAAPSVFIFPPSDSQLKSGTASVVCLLNNFYPREAKVQWKVDNALQSGNSQESVTEQDSKDSTYSLSSTLTLSKADYEKHKVYACEVTHQGLSSPVTKSFNRGECGGSDYKDDDDK
B2: Fab-PC1 (Fab)
heavy: EISEVQLVESGGGLVQPGGSLRLSCAASGFNVSSYSIHWVRQAPGKGLEWVASISSYSGSTSYADSVKGRFTISADTSKNTAYLQMNSLRAEDTAVYYCARSYFVEYYYYYGWPWGLDYWGQGTLVTVSSASTKGPSVFPLAPSSKSTSGGTAALGCLVKDYFPEPVTVSWNSGALTSGVHTFPAVLQSSGLYSLSSVVTVPSSSLGTQTYICNVNHKPSNTKVDKKVEPKSCDKTHTGGSHHHHHH
light: SDIQMTQSPSSLSASVGDRVTITCRASQSVSSAVAWYQQKPGKAPKLLIYSASSLYSGVPSRFSGSRSGTDFTLTISSLQPEDFATYYCQQSSYSYLFTFGQGTKVEIKRTVAAPSVFIFPPSDSQLKSGTASVVCLLNNFYPREAKVQWKVDNALQSGNSQESVTEQDSKDSTYSLSSTLTLSKADYEKHKVYACEVTHQGLSSPVTKSFNRGECGGSDYKDDDDK
notes: chains assembled here by putting the CDRs in place of the scaffold's own CDR stretches; also called Fab-phage clone PC1
B3: Fab-PC1: Fab-phage clone from pomalidomide-cereblon IMiD-binding domain selection; CDRs SEQ ID NO: 4, 9, 14, 21, 22, 19 (antibody)
heavy: B2 heavy
light: B2 light

Assays:
[1] = tested on: scFab-TC1-eGFP fusion protein; assay: IMiD-induced degradation of scFab-TC1-eGFP in HEK 293T cells, flow cytometry for GFP fluorescence; assay type: cell-based; conditions: HEK 293T cells transfected with scFab-TC1-eGFP; 1000 nM, 100 nM or 10 nM for 20 hours; GFP fluorescence intensity
Method: Fab TC1 was converted into a previously described single-chain Fab construct using Gibson cloning (Hornsby, et al., Mol. Cell. Proteomics, 14:2833-2847 (2015)) and subsequently fused to eGFP by Gibson cloning into a pcDNA3.1 vector to produce an expression vector encoding an scTC1-eGFP fusion protein.
K562 and HEK293T cells utilized were from frozen stocks maintained by the Wells lab. The cell lines were not authenticated before use. No test for mycoplasma contamination was performed. Cells expressing scTC1-eGFP were transfected with FugeneHD transfection reagent purchased from Promega using the manufacturer's protocol. Unless otherwise noted all Jurkat and K562 cells lines were cultured in RPMI supplemented with 10% FBS and 1× Pen/Strep. CD19^+ K562 cells were maintained in puromycin (2 μg/mL). HEK293T cells containing the Gal4-UAS-Fluc operon were maintained in High Glucose DMEM supplemented with 10% FBS, 1× Pen/Strep, and puromycin (2 μg/mL). All cell lines were cultured at 37° C. under 5% CO2.
HEK 293T cells (ATCC® CRL-3216™) were transfected to express scFab-TC1-eGFP. Transfected cells were treated with thalidomide, lenalidomide, or pomalidomide at 1000 nM, 100 nM, or 10 nM for 20 hours, after which GFP fluorescence intensity was measured by flow cytometry. Treatment with DMSO was included as a negative control.

[2] = biological target: T1, cereblon IMiD-binding domain (SEQ ID NO: 25) (Homo sapiens, UniProt Q96SW2); assay: Fab ELISA with cereblon IMiD-binding domain in the presence or absence of IMiD; conditions: thalidomide, lenalidomide or pomalidomide, FIG. 2G
T1 construct: TEV cut site; HIS6 tag; made in house; host or cells: E. coli BL21(DE3)
Method: ELISAs were performed according to standard protocols. […] 20 nM of biotinylated cereblon was captured on the NeutrAvidin-coated wells for 30 minutes followed by the addition of various concentrations of Fab with either 5 μM thalidomide, lenalidomide, or pomalidomide or 0.05% DMSO for 30 minutes. The bound Fabs were then detected using a horseradish peroxidase (HRP)-conjugated anti-Fab monoclonal antibody (Jackson ImmunoResearch 109-036-097).
(§1) The unique Fabs from Example 1 were sub-cloned into a bacterial expression vector, expressed, and purified (Hornsby, et al., Mol. Cell. Proteomics, 14:2833-2847 (2015)). […] To further profile the Fabs, we characterized the kinetics of cereblon IMiD-binding domain binding for Fab-TC2 and Fab-PC1 in the presence or absence of their respective IMiD by biolayer interferometry (FIGS. 3A and 3B) (Shah, et al., J. Vis. Exp., e51383 (2014)).

[3] = biological target: T2, cereblon IMiD-binding domain (Homo sapiens, UniProt Q96SW2); assay: Biolayer interferometry binding kinetics of Fabs to cereblon IMiD-binding domain; conditions: for binding to the cereblon IMiD-binding domain alone: absence of IMiD
T2 construct: TEV cut site; HIS6 tag; made in house; host or cells: E. coli BL21(DE3)
Method: Biolayer interferometery data were measured using an Octet RED384 instrument (ForteBio). Biotinylated cereblon was immobilized on a Streptavidin (SA) biosensor using a 200 nM solution. Serial dilutions of Fabs in kinetics buffer (PBS, pH 7.4, 0.05% Tween-20, 0.2% BSA, 10 μM biotin) with IMiD (1 μM) or vehicle (0.05% DMSO) were used as analyte. Affinity (KD) and kinetic parameters (kon and koff) were calculated from a global fit (1:1) of the data using the Octet RED384 software.
as §1

[4] = biological target: T3, pomalidomide-bound cereblon IMiD-binding domain (Pongo abelii (Sumatran orangutan) …, UniProt Q5R6Y2 306-414, biotinylated on its AviTag); assay: Fab-phage competition ELISA (OD450): binding to immobilized IMiD-bound cereblon IMiD-binding domain with 20 nM soluble competitor divided by binding without competitor
T3 construct: not shown: TEV cut site, AviTag and HIS6 tag fused to the domain
T3 sequence: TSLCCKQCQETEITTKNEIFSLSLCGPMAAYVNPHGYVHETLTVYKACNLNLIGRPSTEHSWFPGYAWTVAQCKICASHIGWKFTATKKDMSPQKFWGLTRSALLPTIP

[5] = in the presence of lenalidomide
[6] = in the presence of pomalidomide

Molecule | GFP expression compared to the DMSO control [1] | binding to the cereblon IMiD-binding domain alone [3] | binding to the cereblon IMiD-binding domain [3, 5] | binding to the cereblon IMiD-binding domain [3, 6] | binding to the cereblon IMiD-binding domain ([3]; in the presence of thalidomide) | other results
O=C1CCC(N2C(=O)c3ccccc3C2=O)C(=O)N1 (stereo not drawn) [thalidomide] | reduced GFP expression | – | – | – | – | –
Nc1cccc2c1C(=O)N(C1CCC(=O)NC1=O)C2=O (stereo not drawn) [pomalidomide] | reduced GFP expression | – | – | – | – | –
Nc1cccc2c1CN(C1CCC(=O)NC1=O)C2=O (stereo not drawn) [lenalidomide] | reduced GFP expression | – | – | – | – | –
B1 | – | no significant binding | potent and reversible binding | potent and reversible binding | potent and reversible binding | binding to the cereblon IMiD-binding domain bound to a different IMiD than the one used for selection [2]: all except one of the Fabs (Fab-phage clone TC2) was able to bind; binding compared to binding in the presence of thalidomide [3, 5]: less potent binding; binding compared to binding in the presence of thalidomide [3, 6]: less potent binding
B2 | – | – | – | – | – | competition selectivity ratio [4]: < 0.5
B3 | – | no significant binding | potent and reversible binding | potent and reversible binding | potent and reversible binding | –

From patent US20220332776A1, “ANTIBODY […] INDUCED DIMERIZERS (AbCID) AS MOLECULAR […] AND USES THEREOF” (The Regents of the University of California, priority 2019, published 2022)
